Biological target: the molecule itself
Assay: AUC; sedimentation velocity; native Phb and UV-Phb 0.75 mg/ml; 0.03 M Hepes, pH 6.8, 0.1 M NaCl; 20°C; rotor speed 52000 rpm; growing time (dose) of UV irradiation

B1: glycogen phosphorylase b from rabbit skeletal muscle (enzyme, UniProt P00489 1-843, looked up)
chain: MSRPLSDQEKRKQISVRGLAGVENVTELKKNFNRHLHFTLVKDRNVATPRDYYFALAHTVRDHLVGRWIRTQQHYYEKDPKRIYYLSLEFYMGRTLQNTMVNLALENACDEATYQLGLDMEELEEIEEDAGLGNGGLGRLAACFLDSMATLGLAAYGYGIRYEFGIFNQKICGGWQMEEADDWLRYGNPWEKARPEFTLPVHFYGRVEHTSQGAKWVDTQVVLAMPYDTPVPGYRNNVVNTMRLWSAKAPNDFNLKDFNVGGYIQAVLDRNLAENISRVLYPNDNFFEGKELRLKQEYFVVAATLQDIIRRFKSSKFGCRDPVRTNFDAFPDKVAIQLNDTHPSLAIPELMRVLVDLERLDWDKAWEVTVKTCAYTNHTVLPEALERWPVHLLETLLPRHLQIIYEINQRFLNRVAAAFPGDVDRLRRMSLVEEGAVKRINMAHLCIAGSHAVNGVARIHSEILKKTIFKDFYELEPHKFQNKTNGITPRRWLVLCNPGLAEIIAERIGEEYISDLDQLRKLLSYVDDEAFIRDVAKVKQENKLKFAAYLEREYKVHINPNSLFDVQVKRIHEYKRQLLNCLHVITLYNRIKKEPNKFVVPRTVMIGGKAAPGYHMAKMIIKLITAIGDVVNHDPVVGDRLRVIFLENYRVSLAEKVIPAADLSEQISTAGTEASGTGNMKFMLNGALTIGTMDGANVEMAEEAGEENFFIFGMRVEDVDRLDQRGYNAQEYYDRIPELRQIIEQLSSGFFSPKQPDLFKDIVNMLMHHDRFKVFADYEEYVKCQERVSALYKNPREWTRMVIRNIATSGKFSSDRTIAQYAREIWGVEPSRQRLPAPDEKIP
notes: glycogen phosphorylase b, muscle form, rabbit skeletal muscle; Mr of the dimer printed as 194800 Da; also called Phb; intact Phb; source: purified from rabbit skeletal muscle
stoichiometry N: 2
